Blank lines part the entries; values can stand above or below the binder they belong to. Bridges are numbered along the chain shown (N, C = ends).
Experiments:
[1] = target: human serum-derived γ-globulin (Sigma-Aldrich); assay: DBC on peptide-immobilized column, 0 NaOH wash cycles
[2] = target: human serum-derived γ-globulin (Sigma-Aldrich); assay: DBC on peptide-immobilized column, 0 NaOH wash cycles (reference)
[3] = target: human serum-derived γ-globulin (Sigma-Aldrich); assay: DBC on peptide-immobilized column after 1 wash cycle with 0.1 M NaOH
[4] = target: human serum-derived γ-globulin (Sigma-Aldrich); assay: DBC on peptide-immobilized column after 2 wash cycles with 0.1 M NaOH
[5] = target: human serum-derived γ-globulin (Sigma-Aldrich); assay: DBC on peptide-immobilized column after 5 wash cycles with 0.1 M NaOH
[6] = target: human serum-derived γ-globulin (Sigma-Aldrich); assay: DBC on peptide-immobilized column after 10 wash cycles with 0.1 M NaOH
[7] = target: human IgG; assay: SPR (BIAcore T200), human IgG immobilized on chip, peptide injected at 15.6-1000 nM
[8] = target: human serum-derived γ-globulin (Sigma-Aldrich); assay: column chromatography, peptide immobilized on 1 mL NHS-activated column, 1 mg/mL human γ-globulin at 1 mL/min

DBC 10% [1]: 9.4 mg/mL
DBC 10% (% NaOH wash cycle 0) [2]: 100%
DBC 10% [3]: 9.5 mg/mL
DBC 10% (% NaOH wash cycle 0) [3]: 101%
DBC 10% [4]: 9.4 mg/mL
DBC 10% (% NaOH wash cycle 0) [4]: 100%
DBC 10% [5]: 9.2 mg/mL
DBC 10% (% NaOH wash cycle 0) [5]: 97.9%
DBC 10% [6]: 8.9 mg/mL
DBC 10% (% NaOH wash cycle 0) [6]: 94.7%
Kd [7]: 340 nM
koff [7]: 0.22 s⁻¹
kon [7]: 650000 M⁻¹ s⁻¹
DBC (dynamic binding capacity, 10% breakthrough) [8]: 9.4 mg/mL-column
B1: cross-linked cyclic peptide of Example 1 (N-terminal PEG4-modified, C-terminal amidated …, the two outer cysteine residues linked as in formula CHEM-US-00008) (peptide)
peptide: GPDCAYHRGELVWCTFH
modifications: N-terminal H2N-PEG4; C-terminal amide; position 4 built as homoserine (Hse), its side-chain hydroxyl chlorinated and reacted with Cys 14, so that the two outer cysteine positions (4 and 14) are joined by the linker of drawing CHEM-US-00008 instead of a disulfide

Kd [7]: 4900 nM
koff [7]: 0.005 s⁻¹
DBC (dynamic binding capacity, 10% breakthrough) [8]: 2.3 mg/mL-column
Binder: {NH2‑PEG4}-GPDCAYHRGELVWCTFH-NH2 (linker 4-14 via 1,3‑dichloro‑2‑propanone)

DBC 10% [1]: 13.5 mg/mL
DBC 10% (% NaOH wash cycle 0) [2]: 100%
DBC 10% [3]: 12.4 mg/mL
DBC 10% (% NaOH wash cycle 0) [3]: 91.9%
DBC 10% [4]: 11.5 mg/mL
DBC 10% (% NaOH wash cycle 0) [4]: 85.2%
DBC 10% [5]: 8.9 mg/mL
DBC 10% (% NaOH wash cycle 0) [5]: 65.9%
DBC 10% [6]: 6.1 mg/mL
DBC 10% (% NaOH wash cycle 0) [6]: 45.2%
Binder: {NH2‑PEG4}-GPDCAYHRGELVWCTFH-NH2 (disulfide 4-14)

Source: patent US20210380637A1
